Assay results: patent publication US20240102094A1 (Amgen, published 2024)
Positions count from the first letter of the chain named.

B1: hT2AB (fully human anti-human TREM2 agonistic monoclonal antibody, effectorless hIgG1) (antibody, V domains shown)
VH: EVQLVQSGAEVKKPGESLKISCKGSGYSFTSYWIGWVRQMPGKGLEWMGIIYPGDADARYSPSFQGQVTISADKSISTAYLQWSSLKASDTAMYFCARRRQGIFGDALDFWGQGTLVTVSS
VL: EIVMTQSPATLSVSPGERATLSCRASQSVSSNLAWFQQKPGQAPRLLIYGASTRATGIPARFSGSGSGTEFTLTISSLQPEDFAVYYCLQDNNFPPTFGQGTKVDIKR
notes: also called hT2AB IgG1; anti-human TREM2 mAb hT2AB
B2: hT2AB Fab (monomeric antigen-binding fragment of hT2AB) (Fab, V domains shown)
VH: B1 VH
VL: EIVMTQSPATLSVSPGERATLSCRASQSVSSNLAWFQQKPGQAPRLLIYGASTRATGIPARFSGSGSGTEFTLTISSLQPEDFAVYYCLQDNNFPPTFGQGTKVDIK
notes: also called hT2AB Fab protein

What was measured:
[1] = biological target: T1, mTREM2 expressed with mDAP12 on HEK293 cells (mouse, UniProt Q99NH8 19-227); test: flow cytometry on HEK293 cells expressing mTREM2 and mDAP12, Geomean Fold (S/B) against antibody concentration
T1 construct: whole, on cells
T1 sequence (looked up): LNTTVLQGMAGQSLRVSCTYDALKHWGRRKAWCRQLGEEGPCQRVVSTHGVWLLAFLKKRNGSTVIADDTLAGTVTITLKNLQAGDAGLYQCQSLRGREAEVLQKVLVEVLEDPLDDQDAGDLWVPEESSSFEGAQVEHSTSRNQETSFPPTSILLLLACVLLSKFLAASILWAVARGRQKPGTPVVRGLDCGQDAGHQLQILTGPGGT

[2] = biological target: T2, human TREM2 R47H variant, expressed on cells (human, UniProt Q9NZC2 19-230); test: flow cytometry on bone marrow-derived macrophages from TREM2R47H mice, detection with anti-hIgG Fc-PE
T2 construct: On BMMs from TREM2R47H transgenic mice or on 2B4 NFAT:GFP reporter cells with DAP12; also called hTREM2R47H
T2 chain: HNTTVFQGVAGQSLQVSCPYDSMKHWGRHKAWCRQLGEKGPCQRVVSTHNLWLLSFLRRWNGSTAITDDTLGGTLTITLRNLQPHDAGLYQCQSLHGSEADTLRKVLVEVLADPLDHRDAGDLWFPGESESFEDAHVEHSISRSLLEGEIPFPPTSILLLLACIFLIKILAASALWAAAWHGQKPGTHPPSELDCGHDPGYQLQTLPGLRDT
Source text: An anti-hTREM1 antibody and an isotype-matched hIgG2 control antibody were used as controls. […] Dead cells were excluded by DAPI staining.

[3] = biological target: T3, human TREM2, common variant, expressed on cells (human, UniProt Q9NZC2 19-230); test: cell-based or functional assay
T3 sequence: T2 chain with H29R

[4] = biological target: T4, recombinant hTREM2:GSS:Flag:6xHis (human, UniProt Q9NZC2 19-174, minimally biotinylated (0.3-0.4 biotin/mol) when immobilised on streptavidin sensors); test: Octet BLI; biotinylated hTREM2:GSS:Flag:6xHis on streptavidin sensors, Fab dilution series 30, 10, 3.3 nM, global 1:1 fit; Fab, not IgG; biotinylated hTREM2 on streptavidin sensors
T4 construct: also called hTREM2-His; purified human TREM2; not shown: Flag tag

Binder	binding result [1]	binding result [2]	EC50 of pSyk induction in HEK293 cells expressing human TREM2 and DAP12 (clone G13) [3] [pM]	EC50 of pSyk induction in human monocyte-derived macrophages (hMacs) [3] [pM]	Kd [4] [nM]
B1	no binding (tested: 5 ug/mL)	binds	222	166	–
B2	–	–	–	–	50
